Changes are numbered by the printed parent chain.
T1: NPA1 (influenza A virus A/Taiwan/1/72 (H3N2), UniProt P16982 1-489)
T1 chain: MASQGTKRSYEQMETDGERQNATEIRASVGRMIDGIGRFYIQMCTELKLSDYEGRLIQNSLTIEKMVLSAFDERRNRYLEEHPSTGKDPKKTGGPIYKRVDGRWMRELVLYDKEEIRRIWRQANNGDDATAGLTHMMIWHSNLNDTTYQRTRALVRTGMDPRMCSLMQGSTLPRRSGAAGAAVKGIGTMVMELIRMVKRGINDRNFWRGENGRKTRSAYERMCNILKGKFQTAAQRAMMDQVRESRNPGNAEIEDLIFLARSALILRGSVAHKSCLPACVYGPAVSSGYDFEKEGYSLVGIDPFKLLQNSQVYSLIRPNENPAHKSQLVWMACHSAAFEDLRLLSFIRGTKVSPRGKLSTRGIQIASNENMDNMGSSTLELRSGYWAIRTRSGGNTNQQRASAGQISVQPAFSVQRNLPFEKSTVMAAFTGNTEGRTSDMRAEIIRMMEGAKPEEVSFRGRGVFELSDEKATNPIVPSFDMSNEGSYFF

T2: NPB1 (influenza B virus B/Houston/B720/2004, UniProt O36433 1-548)
T2 chain: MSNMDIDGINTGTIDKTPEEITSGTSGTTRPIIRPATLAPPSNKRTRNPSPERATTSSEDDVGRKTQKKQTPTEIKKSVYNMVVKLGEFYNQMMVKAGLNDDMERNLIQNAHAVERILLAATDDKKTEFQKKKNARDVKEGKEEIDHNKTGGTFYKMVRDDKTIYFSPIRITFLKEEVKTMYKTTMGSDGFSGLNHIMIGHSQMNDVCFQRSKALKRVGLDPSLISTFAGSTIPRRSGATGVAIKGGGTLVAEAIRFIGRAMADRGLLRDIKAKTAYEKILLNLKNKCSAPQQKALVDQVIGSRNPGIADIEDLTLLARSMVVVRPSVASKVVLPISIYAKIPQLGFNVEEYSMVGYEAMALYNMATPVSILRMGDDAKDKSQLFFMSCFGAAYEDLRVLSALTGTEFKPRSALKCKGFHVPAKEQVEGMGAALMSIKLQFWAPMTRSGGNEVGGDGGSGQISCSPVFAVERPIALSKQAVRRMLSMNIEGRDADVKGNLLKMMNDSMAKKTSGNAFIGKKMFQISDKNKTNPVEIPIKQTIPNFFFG

B1: NP10 (antibody, V domains shown)
VH: EVQLVESGGGLVQPGGSLRLSCAASGFTIDNGSIHWVRQAPGKGLEWVAWIWPFGGSTSYADSVKGRFTISADTSKNTAYLQMNSLRAEDTAVYYCARSWSSGYDYWGQGTLVTVSS
VL: DIQMTQSPSSLSASVGDRVTITCRASQDVSWSVAWYQQKPGKAPKLLISGSTWLYSGVPSRFSGSGSGTDFTLTISSLQPEDFATYYCQQYSNSPITFGQGTKVEIKR
B2: NP21 (antibody, V domains shown)
VH: EVQLVESGGGLVQPGGSLRLSCAASGFTINGYGIHWVRQAPGKGLEWVAGIWPYGGSTFYADSVKGRFTISADTSKNTAYLQMNSLRAEDTAVYYCARFYNNHGGIMDYWGQGTLVTVSS
VL: B1 VL with S30Y, W31F, S32Y, S49Y, T52R, S94F, I96V
B3: NP4 (antibody, V domains shown)
VH: EVQLVESGGGLVQPGGSLRLSCAASGFTISNSSIHWVRQAPGKGLEWVAGIGPSGGYTFYADSVKGRFTISADTSKNTAYLQMNSLRAEDTAVYYCARFHSHNSYYSYSHYGYMDYWGQGTLVTVSS
VL: B1 VL with S30G, S32G, S51P, T52S, W53S, S92F, S94Y
B4: NP14 (antibody, V domains shown)
VH: EVQLVESGGGLVQPGGSLRLSCAASGFTIDNGGIHWVRQAPGKGLEWVASIWPSWGSTSYADSVKGRFTISADTSKNTAYLQMNSLRAEDTAVYYCARFNFGVFGVMDYWGQGTLVTVSS
VL: B1 VL with S30D, W31N, S32D, S49Y, S51P, T52R, W53G, N93S, S94W, I96L
B5: NP3 (antibody, V domains shown)
VH: B2 VH with N30S, G31N, Y54F, S57F, F59S, Y100H, N101W, H103D, G104H, I106Y
VL: B1 VL with S30G, S32Y, S49Y, G50S, S51T, W53G, S92Y, S94Y
B6: NP19 (antibody, V domains shown)
VH: EVQLVESGGGLVQPGGSLRLSCAASGFTISSWGIHWVRQAPGKGLEWVAGIGPFWGYTSYADSVKGRFTISADTSKNTAYLQMNSLRAEDTAVYYCARFGVDNYGYMDYWGQGTLVTVSS
VL: B1 VL with W31G, S32W, G50W, W53G, S92F, S94F, I96V
B7: NP8 (antibody, V domains shown)
VH: EVQLVESGGGLVQPGGSLRLSCAASGFTINSFGIHWVRQAPGKGLEWVAGIGPFGGSTFYADSVKGRFTISADTSKNTAYLQMNSLRAEDTAVYYCARGFYWFDYWGQGTLVTVSS
VL: DIQMTQSPSSLSASVGDRVTITCRASQDVDDSVAWYQQKPGKAPKLLIYWTRYLYSGVPSRFSGSGSGTDFTLTISSLQPEDFATYYCQQGYNYPLTFGQGTKVEIKR
B8: NP5 (antibody, V domains shown)
VH: EVQLVESGGGLVQPGGSLRLSCAASGFTISNGSIHWVRQAPGKGLEWVAGIWPSGGSTSYADSVKGRFTISADTINNSAYLQMNSLRAEDTAVYYCARWNYWGQGTLVTVSS
VL: B7 VL with D30G, D31W, W50G, T51S, Y53W, Y94G
B9: NP7 (antibody, V domains shown)
VH: EVQLVESGGGLVQPGGSLRLSCAASGFTISNGGIHWVRQAPGKGLEWVAGIGPYGGFTSYADSVKGRFTISADTSKNTAYLQMNSLRAEDTAVYYCARFYSNYYGYHGVMDYWGQGTLVTVSS
VL: B1 VL with S30F, W31G, S32W, G50Y, T52A, W53S, S92F, S94Y, I96L
B10: NP11 (antibody, V domains shown)
VH: EVQLVESGGGLVQPGGSLRLSCAASGFTIDSYGIHWVRQAPGKGLEWVAWIGPSGGSTFYADSVKGRFTISADTSKNTAYLQMNSLRAEDTAVYYCARGYFWFFDYWGQGTLVTVSS
VL: B7 VL with D30S, D31S, S32W, Y49S, T51S, R52G, Y92F
B11: NP15 (antibody, V domains shown)
VH: EVQLVESGGGLVQPGGSLRLSCAASGFTISNWYIHWVRQAPGKGLEWVAGIGPYGGSTYYADSVKGRFTISADTSKNTAYLQMNSLRAEDTAVYYCARFHWDHLHGMDYWGQGTLVTVSS
VL: B1 VL with S30D, W31N, S32N, G50Y, W53G, S92W, S94Y
B12: NP13 (antibody, V domains shown)
VH: EVQLVESGGGLVQPGGSLRLSCAASGFTINNYGIHWVRQAPGKGLEWVASIGPYGGSTYYADSVKGRFTISADTSKNTAYLQMNSLRAEDTAVYYCARFGYFNWLDMDYWGQGTLVTVSS
VL: DIQMTQSPSSLSASVGDRVTITCRASQDVGYWVAWYQQKPGKAPKLLISSASGLYSGVPSRFSGSGSGTDFTLTISSLQPEDFATYYCQQGWDWPITFGQGTKVEIKR
B13: NP12 (antibody, V domains shown)
VH: EVQLVESGGGLVQPGGSLRLSCAASGFTIDNGYIHWVRQAPGKGLEWVASIWPSWGSTYYADSVKGRFTISADTSKNTAYLQMNSLRAEDTAVYYCARGFYYYGDYWGQGTLVTVSS
VL: B12 VL with Y31G, W32N, A51T, S52A, G91Y, W92Y, W94F, I96L
B14: NP9 (antibody, V domains shown)
VH: EVQLVESGGGLVQPGGSLRLSCAASGFTINNGWIHWVRQAPGKGLEWVAGIGPYWGFTSYADSVKGRFMISADTSKNTAYLQMNSLRAEDTAVYYCARFDSDHDHHYSYYYYYDNGYMDYWGQGTLVTVSS
VL: B7 VL with D30W, D31F, W50G, R52T, Y53S, G91Y, Y92F
B15: NP2 (antibody, V domains shown)
VH: EVQLVESGGGLVQPGGSLRLSCAASGFTIGGGGIHWVRQAPGKGLEWVAGIWPYWGYTFYADSVKGRFTISADTSKNTAYLQMNSLRAEDTAVYYCARFWHGNLDVMDYWGQGTLVTVSS
VL: B1 VL with S30Y, W31G, S32Y, S49Y, S51A, T52A, W53G, S94F, I96L
B16: NP20 (antibody, V domains shown)
VH: EVQLVESGGGLVQPGGSLRLSCAASGFTINGYSIHWVRQAPGKGLEWVASIGPYGGFTYYADSVKGRFTISADTSKNTAYLQMNSLRAEDTAVYYCAGFGFYYWGQGTLVTVSS
VL: B12 VL with W32G, S50G, G91Y, W92S, D93S, W94F, I96L
B17: NP23 (antibody, V domains shown)
VH: B16 VH with N30S, G31N, S33F, Y54F, Y59S, F99Y, Y102H
VL: B7 VL with S32G, Y49S, W50G, T51A, Y53W, G91Y, Y94F
B18: NP22 (antibody, V domains shown)
VH: B13 VH with D30S, N31D, G32W, Y33S, S50G, S54Y, Y59S, Y102S, Y103W, G104F
VL: B12 VL with G30F, Y31S, G53S, G91S, W94Y
B19: NP25 (antibody, V domains shown)
VH: B13 VH with D30G, N31G, Y33F, S54Y, S57F, F100S, Y102G, G104S
VL: B7 VL with S26G, D30S, D31S, S32G, Y49S, R52S, Y53F, G91Y, N93D, L96I
B20: NP24 (antibody, V domains shown)
VH: B10 VH with S31D, Y32W, G33Y, W50G, S54Y, S57F, F59Y, F101Y, W102G, F103S
VL: B12 VL with Y31S, W32S, S49F, S50Y, A51T, G53S, W94S, I96V

The binders below were run against T3, NPA4 (influenza A virus …, UniProt A8C8J8 1-489) (assay: ELISA on recombinant NP).

| Binder | binding result |
| --- | --- |
| B1 | no binding |

Target: T1, NPA1
Experiment: ELISA on recombinant NP

| Binder | EC50 |
| --- | --- |
| B1 | 0.36 nM |
| B2 | 0.12 nM |
| B3 | 0.19 nM |
| B4 | 0.19 nM |
| B5 | 0.09 nM |
| B6 | 0.11 nM |

What follows are binders tested against NPA2 (influenza A virus A/WSN/1933(H1N1), UniProt A4U6V6 1-489) (assay: ELISA on recombinant NP).

| Binder | EC50 |
| --- | --- |
| B2 | 28.6 nM |
| B4 | 0.08 nM |
| B7 | 2.14 nM |
| B8 | 0.13 nM |
| B9 | 0.79 nM |
| B10 | 0.27 nM |

Target: T3, NPA4
Experiment: ELISA on recombinant NP
Remark: another data set of the same source

| Binder | EC50 |
| --- | --- |
| B11 | 0.35 nM |
| B12 | 0.07 nM |

These binders were tested against NPA5 (influenza A virus A/Anhui/1/2005 …, UniProt Q6DPE5 1-489) (assay: ELISA on recombinant NP).

| Binder | EC50 |
| --- | --- |
| B1 | 0.28 nM |
| B13 | 9.07 nM |
| B3 | 0.37 nM |
| B4 | 1.7 nM |
| B14 | 1.12 nM |
| B10 | 0.06 nM |
| B12 | 0.09 nM |

Target: T2, NPB1
Experiment: ELISA on recombinant NP

| Binder | EC50 |
| --- | --- |
| B15 | 1.37 nM |
| B16 | 0.04 nM |
| B17 | 0.06 nM |
| B18 | 0.27 nM |
| B19 | 0.1 nM |
| B20 | 0.05 nM |
